Laboratory results as given in patent publication US20170174769A1 (Regeneron, published 2017).
Substitutions are numbered along the chain they refer to. Names and notes keep the numbering of the source.

What was measured:
[1] = molecular target: T1, extracellular domain of human FGFR1c expressed with C-terminal V5 and hexahistidine tags (human, UniProt P11362 22-376); assay: SPR, mAb captured, 25 C
T1 construct: also called hFGFR1c-V5-6His
T1 sequence: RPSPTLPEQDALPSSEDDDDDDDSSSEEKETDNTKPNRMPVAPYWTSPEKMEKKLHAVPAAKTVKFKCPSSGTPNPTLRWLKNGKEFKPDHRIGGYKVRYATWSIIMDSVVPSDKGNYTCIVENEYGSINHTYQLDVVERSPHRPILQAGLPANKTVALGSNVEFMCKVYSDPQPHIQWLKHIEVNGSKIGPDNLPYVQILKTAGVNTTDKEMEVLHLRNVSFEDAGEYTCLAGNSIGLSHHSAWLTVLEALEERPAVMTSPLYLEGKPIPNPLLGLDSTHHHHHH
Outline: (§1)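 Surface plasmon resonance with Fc-capture of each monoclonal antibody. Running buffer was 0.01M HEPES pH 7.4, 0.15M NaCl, 3mM EDTA, 0.05% v/v Surfactant P20. Rate constants fit to a 1:1 model yielded KD.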

[2] = molecular target: T2, extracellular domain of human KLB expressed with C-terminal HA and hexahistidine tags (human, UniProt Q86Z14 1-996); assay: SPR, mAb captured, 25 C
T2 construct: also called hKLB-HA-6His; hKLB-HA-6his
T2 sequence: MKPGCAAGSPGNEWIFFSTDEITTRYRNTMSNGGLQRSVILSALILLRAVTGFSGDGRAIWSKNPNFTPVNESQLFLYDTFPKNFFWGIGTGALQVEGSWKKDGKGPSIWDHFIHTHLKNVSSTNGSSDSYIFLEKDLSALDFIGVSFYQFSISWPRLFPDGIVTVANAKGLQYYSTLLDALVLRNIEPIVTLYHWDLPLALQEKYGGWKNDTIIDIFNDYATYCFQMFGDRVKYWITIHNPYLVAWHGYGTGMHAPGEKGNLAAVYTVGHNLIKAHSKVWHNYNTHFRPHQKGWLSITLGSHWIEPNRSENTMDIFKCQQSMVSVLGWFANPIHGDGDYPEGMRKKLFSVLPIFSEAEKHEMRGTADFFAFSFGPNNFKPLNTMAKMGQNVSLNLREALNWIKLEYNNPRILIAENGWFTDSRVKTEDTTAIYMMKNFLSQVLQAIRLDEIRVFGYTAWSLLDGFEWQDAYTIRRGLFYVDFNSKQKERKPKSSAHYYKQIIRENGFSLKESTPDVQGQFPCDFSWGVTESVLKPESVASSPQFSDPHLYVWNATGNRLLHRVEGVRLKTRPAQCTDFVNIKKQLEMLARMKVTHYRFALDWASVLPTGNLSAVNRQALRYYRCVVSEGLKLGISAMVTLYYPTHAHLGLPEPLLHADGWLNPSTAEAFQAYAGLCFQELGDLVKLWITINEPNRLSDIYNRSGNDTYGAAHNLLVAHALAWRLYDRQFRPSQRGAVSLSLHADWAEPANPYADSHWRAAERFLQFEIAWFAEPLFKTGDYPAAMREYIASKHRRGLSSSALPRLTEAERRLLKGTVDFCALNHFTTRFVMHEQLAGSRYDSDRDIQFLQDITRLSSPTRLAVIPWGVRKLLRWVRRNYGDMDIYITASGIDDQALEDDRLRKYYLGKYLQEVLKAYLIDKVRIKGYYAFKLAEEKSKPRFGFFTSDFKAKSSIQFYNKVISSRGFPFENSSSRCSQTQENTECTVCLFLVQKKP
Outline: as §1

[3] = molecular target: human KLB and human FGFR1c co-expressed on HEK293/hKLB/hFGFR1c/SRE-luc cells (human, UniProt Q86Z14 1-1044; P11362 22-822); assay: cell-based or functional assay
[4] = molecular target: M. fascicularis KLB and human FGFR1c co-expressed on HEK293/MfKLB/hFGFR1c/SRE-Luc cells (M. fascicularis; human, UniProt A0A2K5WB58 1-1044); assay: cell-based or functional assay
[5] = molecular target: T1, extracellular domain of human FGFR1c …; assay: SPR, mAb captured, 37 C
Outline: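 KD values derive from kinetic rate constants obtained by fitting real-time sensorgrams to a 1:1 binding model. Antibodies were held on anti-Fc capture surfaces matched to mouse or human Fc, with tagged receptor domains passed over in HBST, pH 7.4.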

[6] = molecular target: T2, extracellular domain of human KLB …; assay: SPR, mAb captured, 37 C
Outline: as §1

B1: H4H8880P (antibody, V domains shown)
VH: EVQLVESGGGVVQPGGSLRLSCAASGFTFSLYAMSWVRQAPGKGLEWVSAISGSAHGAYYADSVKGRFTISRDNSKNSLYLQMNSLRAEDTAIYYCAKDLVIAVAGTFDYWGQGTLVTVSS
VL: DIQMTQSPSSLSASVGDRVTITCRASQIISTYLNWYQQKPGKAPKILIYTASSLKSGVPSRFSGSGSGTDFTLTISSLQPEDFATYYCQQTYSSPRFTFGPGTKVDIK
notes: human IgG4 Fc (H4H prefix)
180 nM hFGFR1c-V5-6His Bind (RU) [1]: 0.4 RU | binding result [1]: no binding (tested: 180 nM) | 20 nM hKLB-HA-6His Bind (RU) [2]: 68.1 RU | Kd [2]: 0.64 nM | koff [2]: 0.000287 s⁻¹ | kon [2]: 448000 M⁻¹ s⁻¹ | t1/2 [2]: 40.3 min | IC50, inhibition of 1 nM hFGF21 [3]: 0.15 nM | Maximum Inhibition (%) of 1 nM hFGF21 [3]: 39% | IC50, inhibition of 10 nM mfFGF21 [4]: 0.12 nM | Maximum Inhibition (%) of 10 nM mfFGF21 [4]: 39% | 180 nM hFGFR1c-V5-6His Bind (RU) [5]: 0.1 RU | 20 nM hKLB-HA-6His Bind (RU) [6]: 148 RU | Kd [6]: 0.945 nM | koff [6]: 0.000526 s⁻¹ | kon [6]: 556000 M⁻¹ s⁻¹ | t1/2 [6]: 22 min

B2: H4H8881P (antibody, V domains shown)
VH: QVQLVQSGAEVKKPGASVKVSCKASGYTFTSYVIHWVRQAPGQRLEWMGWSNAANGDTKYSQEFQDRVTFTRDTSASTAYMELSSLRSEDMAVYYCARWNWNYGAFDIWGQGTMVTVSS
VL: DIQMTQSPSSLSASVGDRVTITCQASQDINNYLHWYQQKSGKAPNLLIYDASILETGVPSRFSGSGSGTDFTFTISSLQPEDIATYYCQQYDNLPYTFGQGTKLEIK
notes: human IgG4 Fc (H4H prefix)
180 nM hFGFR1c-V5-6His Bind (RU) [1]: 0.3 RU | binding result [1]: no binding (tested: 180 nM) | 20 nM hKLB-HA-6His Bind (RU) [2]: 92.7 RU | Kd [2]: 0.124 nM | koff [2]: 0.000178 s⁻¹ | kon [2]: 1.44e+06 M⁻¹ s⁻¹ | t1/2 [2]: 65 min | IC50, inhibition of 1 nM hFGF21 [3]: 0.067 nM | Maximum Inhibition (%) of 1 nM hFGF21 [3]: 77% | EC50, SRE-luc activation without ligand [4]: 0.02 nM | IC50, inhibition of 10 nM mfFGF21 [4]: 0.046 nM | Maximum Activation (%) without ligand [4]: 3% | Maximum Inhibition (%) of 10 nM mfFGF21 [4]: 77% | 180 nM hFGFR1c-V5-6His Bind (RU) [5]: 0 RU | 20 nM hKLB-HA-6His Bind (RU) [6]: 101 RU | Kd [6]: 0.32 nM | koff [6]: 0.000463 s⁻¹ | kon [6]: 1.45e+06 M⁻¹ s⁻¹ | t1/2 [6]: 24.9 min

B3: H1H8897P (antibody, V domains shown)
VH: QVQLVESGGGLVKPGGSLRLSCAAAGFTFSDYYMSWIRQAPGQGLEWVSYISPSGSTTYYADSVQGRFTISRDNAKSSLYLQMNSLRAEDTAVYYCARTGIQLWSVYFDYWGQGTLVTVSS
VL: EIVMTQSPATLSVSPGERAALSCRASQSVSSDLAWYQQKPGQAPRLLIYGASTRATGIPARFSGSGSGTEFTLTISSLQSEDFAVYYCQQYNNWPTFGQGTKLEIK
notes: H1H Fc prefix (human Fc)
180 nM hFGFR1c-V5-6His Bind (RU) [1]: 0.9 RU | binding result [1]: no binding (tested: 180 nM) | 20 nM hKLB-HA-6His Bind (RU) [2]: -0.4 RU | IC50, inhibition of 1 nM hFGF21 [3]: 0.97 nM | Maximum Inhibition (%) of 1 nM hFGF21 [3]: 101% | IC50, inhibition of 10 nM mfFGF21 [4]: 5.2 nM | Maximum Inhibition (%) of 10 nM mfFGF21 [4]: 101% | 180 nM hFGFR1c-V5-6His Bind (RU) [5]: 0.7 RU | 20 nM hKLB-HA-6His Bind (RU) [6]: 1.9 RU

B4: H1H8898P (antibody, V domains shown)
VH: B3 VH with A25S, T28I, Q43K, E46D, V48I, T58I, Q65K, S77N, E89D
VL: EIVMTQSPATLSVSPGERATLSCRASQSVGSNLAWYQQKPGQAPRLLIYGASTRANGIPARFSGSGSGTEFTLTISGLQSEDFAVYYCQQYNNWPTFGQGTKLEIK
notes: H1H Fc prefix (human Fc)
180 nM hFGFR1c-V5-6His Bind (RU) [1]: 2.9 RU | binding result [1]: no binding (tested: 180 nM) | 20 nM hKLB-HA-6His Bind (RU) [2]: -0.2 RU | IC50, inhibition of 1 nM hFGF21 [3]: 2 nM | Maximum Inhibition (%) of 1 nM hFGF21 [3]: 97% | IC50, inhibition of 10 nM mfFGF21 [4]: 12 nM | Maximum Inhibition (%) of 10 nM mfFGF21 [4]: 97% | 180 nM hFGFR1c-V5-6His Bind (RU) [5]: 0.4 RU | 20 nM hKLB-HA-6His Bind (RU) [6]: -1.9 RU
